Numbering of substitutions follows the chain as printed.
T1: His-tagged SIRT1 (bacterially expressed) (human, UniProt Q96EB6)
T1 sequence: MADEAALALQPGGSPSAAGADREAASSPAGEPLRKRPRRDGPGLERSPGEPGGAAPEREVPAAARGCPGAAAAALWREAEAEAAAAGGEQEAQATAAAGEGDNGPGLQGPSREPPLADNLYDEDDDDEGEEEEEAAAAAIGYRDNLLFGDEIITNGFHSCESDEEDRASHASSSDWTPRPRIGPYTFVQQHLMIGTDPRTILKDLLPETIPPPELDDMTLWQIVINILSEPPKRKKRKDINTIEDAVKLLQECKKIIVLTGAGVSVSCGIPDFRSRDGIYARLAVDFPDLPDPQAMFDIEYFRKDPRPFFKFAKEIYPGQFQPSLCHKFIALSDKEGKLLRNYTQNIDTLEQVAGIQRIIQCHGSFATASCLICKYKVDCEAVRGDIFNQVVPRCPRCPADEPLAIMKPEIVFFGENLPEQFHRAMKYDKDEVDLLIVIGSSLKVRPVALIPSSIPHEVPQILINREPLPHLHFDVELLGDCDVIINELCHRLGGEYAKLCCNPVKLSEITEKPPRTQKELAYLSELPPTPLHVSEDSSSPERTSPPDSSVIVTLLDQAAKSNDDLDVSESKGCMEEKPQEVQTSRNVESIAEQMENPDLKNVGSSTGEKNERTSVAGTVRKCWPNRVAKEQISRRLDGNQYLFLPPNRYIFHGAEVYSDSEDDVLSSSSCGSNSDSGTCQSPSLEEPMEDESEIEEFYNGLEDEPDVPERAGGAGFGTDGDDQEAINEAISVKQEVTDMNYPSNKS

B1: His-tagged TULP3 (bacterially expressed) (natural protein)
chain: MEASRCRLSPSGDSVFHEEMMKMRQAKLDYQRLLLEKRQRKKRLEPFMVQPNPEARLRRAKPRASDEQTPLVNCHTPHSNVILHGIDGPAAVLKPDEVHAPSVSSSVVEEDAENTVDTASKPGLQERLQKHDISESVNFDEETDGISQSACLERPNSASSQNSTDTGTSGSATAAQPADNLLGDIDDLEDFVYSPAPQGVTVRCRIIRDKRGMDRGLFPTYYMYLEKEENQKIFLLAARKRKKSKTANYLISIDPVDLSREGESYVGKLRSNLMGTKFTVYDRGICPMKGRGLVGAAHTRQELAAISYETNVLGFKGPRKMSVIIPGMTLNHKQIPYQPQNNHDSLLSRWQNRTMENLVELHNKAPVWNSDTQSYVLNFRGRVTQASVKNFQIVHKNDPDYIVMQFGRVADDVFTLDYNYPLCAVQAFGIGLSSFDSKLACE
B2: His-tagged TULP3-4G (natural protein)
chain: B1 chain with Y193G, P195G, K333G, P336G

Biological target: T1, His-tagged SIRT1 (bacterially expressed)
Experiment: SEC

Binder | binding result
B1 | binds
B2 | binds

— paper doi:10.1101/2023.12.07.570558 (bioRxiv, 2023)
